From patent US12460006B2, “Antibodies against integrin alpha 11 beta 1” (Momenta Pharmaceuticals, Inc., priority 2019, dated 2025)

T1: α11β1 I Domain (Homo sapiens, UniProt Q9UKX5)
T1 sequence (Q9UKX5 164-345 limits assumed): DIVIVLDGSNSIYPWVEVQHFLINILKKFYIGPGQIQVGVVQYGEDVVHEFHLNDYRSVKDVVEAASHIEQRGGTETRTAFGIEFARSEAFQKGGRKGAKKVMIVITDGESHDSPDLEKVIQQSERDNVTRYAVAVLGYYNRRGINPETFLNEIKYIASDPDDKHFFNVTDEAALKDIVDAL

B1: 16E10: rabbit anti-α11β1 mAb; heavy chain SEQ ID NO: 161, light chain SEQ ID NO: 162 (antibody)
heavy: METGLRWLLLVAVLKGVQCQSLEESGGDLVKPGASLTLTCRVSGFSFSSSYYMCWVRQAPGKGLEWIACIGTTRGSTYYATWAKGRFTISKISSTTVTLQMTSLTDADTATYFCARDATGYRINTIGLYFNLWGPGTLVTVSSGQPKAPSVFPLAPCCGDTPSSTVTLGCLVKGYLPEPVTVTWNSGTLTNGVRTFPSVRQSSGLYSLSSVVSVTSSSQPVTCNVAHPATNTKVDKTVAPSTCSKPMCPPPELPGGPSVFIFPPKPKDTLMISRTPEVTCVVVDVSQDDPEVQFTWYINNEQVRTARPPLREQQFNSTIRVVSTLPIAHQDWLRGKEFKCKVHNKALPAPIEKTISKARGQPLEPKVYTMGPPREELSSRSVSLTCMINGFYPSDISVEWEKNGKAEDNYKTTPTVLDSDGSYFLYSKLSVPTSEWQRGDVFTCSVMHEALHNHYTQKSISRSPGK
light: MDTRAPTQLLGLLLLWLPGARCAFELTQTPSSVEAAVGGTPTIKCQASQTIYSYLSWYQQKPGQPPKLLIYEASKLASGVPSRFSGSGSGTDYTLTISDLECADAATYYCQSYHGTASTEYNTFGGGTEVVVRGDPVAPTVLIFPPAADQVATGTVTIVCVANKYFPDVTVTWEVDGTTQTTGIENSKTPQNSADCTYNLSSTLTLTSTQYNSHKEYTCKVTQGTTSVVQSFNRGDC
B2: 9-G05: mouse anti-α11β1 mAb; VH SEQ ID NO: 103, VL SEQ ID NO: 104 (antibody, V domains shown)
VH: EVQLQQSGPELVKPGASVKIPCKASGYTFPDYNMDWVKQSHGKSLEWIGYINPDNGGTIYNQKFKGKATLTVDKSSSTAYMELRSLTSEDTAVYYCARLDSSGYGYYAMDYWGQGTSVTVSS
VL: DIVLTQSPASLAVSLGQRATISCRASESVDNYGISFMHWYQQKPGQPPKLLIYRASNLDSEIPARFSGSGSRTDFTLTIDPVETDDVATYYCQQSYKDPRTFGGGTKLEIK
B3: 79E3E3: rat anti-α11β1 mAb; VH SEQ ID NO: 145, VL SEQ ID NO: 146 (antibody, V domains shown)
VH: MDWLWNLLFLMVVAQSAQAQIQLVQSGPEVKKPGESVKISCKASGYTFTDYAMNWVKQAPGNGLKWMGWINTQTGKPTYADDFKQRFVFSLETSARTTYLQINNLNIEDTATYFCTRLGTGNTKGFAYWGQGTLVTVSS
VL: MESQTHVLISLLLCVSGTCGDILINQSPASLTVSAGERVTMSCKSSQSLLYSENNQDYLAWYQQKPGQFPKLLIYGASNRHTGVPDRFTGSGSGTDFTLTISSVQAEDLADYYCEQTYRYPFTFGSGTKLEIK
B4: 16G7: rabbit anti-α11β1 mAb; heavy chain SEQ ID NO: 159, light chain SEQ ID NO: 160 (antibody)
heavy: METGLRWLLLVAVFKGVQCQEQLVESGGDLVKPGASLTLTCTASGFSFNKNYWMCWVRQAPGKGLEWIGCIYNGDGNTYYASWVNGRFTISKTSSTTVTLQMTSLTVADTAIYFCARLLNMWGPGTLVTVSSGQPKAPSVFPLAPCCGDTPSSTVTLGCLVKGYLPEPVTVTWNSGTLTNGVRTFPSVRQSSGLYSLSSVVSVTSSSQPVTCNVAHPATNTKVDKTVAPSTCSKPMCPPPELPGGPSVFIFPPKPKDTLMISRTPEVTCVVVDVSQDDPEVQFTWYINNEQVRTARPPLREQQFNSTIRVVSTLPIAHQDWLRGKEFKCKVHNKALPAPIEKTISKARGQPLEPKVYTMGPPREELSSRSVSLTCMINGFYPSDISVEWEKNGKAEDNYKTTPTVLDSDGSYFLYSKLSVPTSEWQRGDVFTCSVMHEALHNHYTQKSISRSPGK
light: MDTRAPTQLLGLLLLWLPGARCADIVMTQTPASVEAAVGGTVTIKCQASESIGNALAWYQQKPGQPPKLLIYTAATLASGVPSRFSGSGSGTEFTLTISGVQCDDAATYYCQSYYFTSVSSYGNAFGGGTEVVVKGDPVAPTVLIFPPAADQVATGTVTIVCVANKYFPDVTVTWEVDGTTQTTGIENSKTPQNSADCTYNLSSTLTLTSTQYNSHKEYTCKVTQGTTSVVQSFNRGDC
B5: 24E4G6: rat anti-α11β1 mAb; VH SEQ ID NO: 147, VL SEQ ID NO: 148 (antibody, V domains shown)
VH: MELELSLIFIFSLLKDVQCEVQLVESGGSLVQPGGSLKLSCVASGYTFSNYWMDWVRQSPGKSLEWIGEINTDGRRTNYAPSIKDRFTISRDNAKSTLYLQMSNVKSDDTAIYYCTILRVYPHYFDYWGQGVMVTVSS
VL: MMSPAQFLFLLMLWIQEARGDVVMTQTPPSLSVAIGQSVSISCKSSQSLVYSDGETYLHWFLQSPGRSPKRLIYHVSNLGSGVPDRFSGTGSLTDFTLRISRVEAEDLGVYYCAQTTHFPPTFGAGTKLELK
B6: 8-I14: mouse anti-α11β1 mAb; VH SEQ ID NO: 109, VL SEQ ID NO: 110 (antibody, V domains shown)
VH: EVQLQQSGPELVKPGASVKKSCKASGYTFTDYYMHWVKQKPGQGLEWIGKIYPGSGNTHYNEKFKGKATLTADKSSSTAYMQLSSLTSEDSAVYFCATNYYGYRAMNYWGQGSSVTVSS
VL: DIHLTQSPSSLSASLGERISLTCRASQDIYISLNWFQQKPDGTIKLLIYGTSSLDSGVPKRFSGSRSGSDYSLTISSLESEDFADYYCLQYASSPYTFGGGTKLEIK
B7: 9-B11: mouse anti-α11β1 mAb; VH SEQ ID NO: 115, VL SEQ ID NO: 116 (antibody, V domains shown)
VH: QVQLQQPGAELVRPGTSVKLSCKASGYTFTSYWMHWVQQRPGQGLEWIGVIDPSDSYTNYNQKFKGKATLTVDTSSSSAYMQLSSLTSEDSAVYYCARDDVAMDYWGQGTSVTVSS
VL: DIVVTQSPASLAVSLGQRATISCRASESVDSYGNSFIHWYQQKPGQPPKLLIYRASNLKSGIPARFSGSGSRTDFTLTINPVEADDVATYYCQQSNEDPYTFGGGTKLEIK
B8: 9-E16: mouse anti-α11β1 mAb; VH SEQ ID NO: 111, VL SEQ ID NO: 112 (antibody, V domains shown)
VH: EVQLQQSGPELVKPGASVKISCKASGYTFTDYYMHWVKQKPGQGLEWIGEIYPGSGNPYYNEKFKGKATLTADKSSSSAYMQLSSLTSEDSAVYFCARTSYGRVGTGFAYWGQGTLVTVSA
VL: NFVMTQTPLSLPVSLGDQASISCRSSQSLLHSNGNTYLHWYLQKPGQSPKLLIYKVSNRFSGVPDRFSGSGSGTDFTLKINRVETEDLGIYFCSQSSHVPTFGAGTKLELK

System: α11β1 Headpiece
Assay: SPR binding to α11β1 Headpiece
Set-up: species or system human
Conditions: SPR data
Method: (§1) The affinity of antibodies for human α11β1 was measured by surface plasmon resonance assay (SPR). Affinity was measured at pH 7.6 and 25° C. with a Biacore T200 instrument. Anti-HIS antibody was immobilized on the SPR sensor surface using EDC/NHS covalent attachment. HIS-tagged human α11β1 was captured on the sensor surface and a single-cycle kinetics assay was used. Increasing concentrations of test antibody were injected in series over the sensor-bound α11β1. Dissociation was monitored for 1000 seconds. A sensor surface with only anti-HIS antibody and a series of blank injections were used to double-reference subtract the data. A 1:1 Langmuir model was fit to the data to estimate the kinetic association and dissociation constants. The affinity (equilibrium dissociation constant) of the interaction was calculated by dividing the kinetic dissociation constant by the kinetic association constant. Between injection cycles α11β1 and bound antibody were removed with an injection of 10 mM glycine at pH 1.5.
(§2) The binding affinity of antibodies for the α11β1 Headpiece and α11β1 I Domain as measured by SPR is shown in FIG. 10A and FIG. 10B, respectively.

binding to the headpiece domain of α11β1 | Molecule
do not bind | B1

Target: T1, α11β1 I Domain
Assay: SPR binding to α11β1 I Domain
Conditions: SPR data
Method: as §1, §2

binding to the I domain of α11β1 | Molecule
do bind | B2
do bind | B3
do not bind | B1

System: CHO cell lines expressing α11
Assay: Collagen gel contraction assay
Assay type: cell-based, human
Conditions: Yes/No
Method: 24-well plates were blocked with 2% BSA in PBS overnight at 37° C. The following day, the plates were washed 3 times with PBS before being used in the assay. Human CHO cell lines expressing α11 were harvested and resuspended at 1.25×10^6 in ExpiCHO Expression Medium (Gibco™ Cat #A2910002). The collagen gel solution was prepared by diluting 3 mg/mL stock collagen type I (Gibco™ Collagen I Rat Protein, Tail Cat #A1048301) to 1 mg/mL in the media containing the CHO cells. Sodium hydroxide was added to the solution to neutralize the pH and 400 μL of the collagen solution was added to each well of the 24-well plates. For the wells where the antibodies were included in the collagen gel solution, CHO cells were prepared at 2.5×10^6 and the antibodies were prepared at 2× final concentration in ExpiCHO media. The cells and antibodies were then combined 1:1 before the addition of the stock collagen type 1. The gels were allowed to polymerize for 60 minutes at 37° C. Antibodies were added to the ExpiCHO media, which was then layered on top of the polymerized gel (400 μL/well). The gels were incubated for 6 days at 37° C. before gel contraction was quantified. Images of each well were analyzed using Image J and gel contraction was determined as a percentage of the initial gel area.
Selected exemplary antibodies were tested for the ability to inhibit cell-mediated 3D gel contraction because this ability is directly linked to the functionality of the exemplary antibodies.

Molecule | Inhibition of CHO-K1 gel contraction
B4 | No
B5 | Yes
B2 | Yes
B6 | No
B3 | Yes
B1 | Yes
B7 | No

Same assay, conditions: vs untreated

Molecule | inhibition of CHO-hu α11-mediated collagen gel contraction
B2 | inhibited CHO-hu α11-mediated collagen gel contraction
B6 | inhibited CHO-hu α11-mediated collagen gel contraction
B3 | inhibited CHO-hu α11-mediated collagen gel contraction
B1 | inhibited CHO-hu α11-mediated collagen gel contraction
B8 | inhibited CHO-hu α11-mediated collagen gel contraction

System: A549 cells
Assay: Tumor xenograft model
Assay type: in vivo, C.B-17 SCID mice
Conditions: 2mpk, intraperitoneal every 3 days, 7 doses
Method: Fifty-six female C.B-17 SCID mice were inoculated with A549 cells (5×10^6 cells/mouse) subcutaneously in the flank. Once tumor volume reached ˜100 mm^3, animals were randomized amongst 7 groups of 8 mice each. Mice were then treated intraperitonealy every 3 days for a total of 7 doses with isotype controls or novel mAbs 79E3E3, 16E10 and 9G04 (2 and 20 mg/kg) or with docetaxel at 10 mg/kg every 4 days for a total of 6 doses. Tumor volumes and body weights were recorded twice a week with a gap of 2-3 days in between two measurements until any of the following conditions defined were observed: loss of 20% or more body weight; tumors that inhibit normal physiological function such as eating, drinking, and mobility; ulcerated tumors; tumor size greater than 2000 mm^3 and clinical observations of prostration, paralysis, seizures and hemorrhages.
In this example, studies were performed to determine if inhibition of α11β1 function with mAb results in xenograft growth inhibition. As shown in FIG. 16 and Table 4, blocking α11β1 on mouse CAFs impeded xenograft growth in SCID mice.

Molecule | Days to Volume Doubling (ave, 95% CI)
B3 | 8.5 (8.0, 9.0) Days
B1 | 7.9 (7.5, 8.3) Days

Same assay, conditions: 20mpk, intraperitoneal every 3 days, 7 doses

Molecule | Days to Volume Doubling (ave, 95% CI)
B3 | 8.5 (8.0, 9.0) Days
B1 | 7.9 (7.5, 8.3) Days

Same assay, conditions: A549 xenograft, SCID mice

Molecule | inhibition of tumor growth compared to isotype control
B3 | significantly inhibited tumor growth
B1 | no significant inhibition of tumor growth
